± gives the half width of the 95% confidence interval.
Assays:
[1] = folding stability dG unfold from trypsin proteolysis; higher = more stable
In short: (§1)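 Digests were run with trypsin and chymotrypsin at 11 concentrations in threefold dilutions, plus a no-protease condition, on designed mini-proteins in a PA-tagged cDNA display construct. The mini-proteins were under 80 residues, had no cysteine, and were kept only when AlphaFold2 dimer inter-PAE was above 15. After sequencing, Bayesian fitting of the counts gave K50, from which unfolding free energy was derived against a sequence-predicted unfolded-state K50 and a shared folded-state K50, per protease or combined.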

[2] = folding stability dG unfold from chymotrypsin proteolysis; higher = more stable
In short: as §1

[3] = folding stability dG unfold (combined trypsin and chymotrypsin); higher = more stable
In short: as §1

Q: For “SAGGSMITLTFPAPREVAVPAIEAAAEKHGVTILSVEFDPATGRLTVTVDSSLPEEEVRAMVAAVLASAGGS [r8_338_JUSTAS]”, which “folding stability dG unfold” value [1] is on record?
A: 4.75 ± 0.24 kcal/mol

Q: What about the “folding stability dG unfold” value [2] of the same sequence?
A: 4.47 ± 0.058 kcal/mol

Q: And the “folding stability dG unfold” value [3]?
A: 4.57 ± 0.075 kcal/mol

Q: What does the source list for “SAGGSAIVIPVKSWEEFVEALKNAPASVEIIADLPDGNVIKAKIDPSKGPKIIITEVFPVPPELAGSAGGSA [r15_577_TrMRF]”?
A: folding stability dG unfold [1]: 0.515 ± 0.036 kcal/mol; folding stability dG unfold [2]: 1.06 ± 0.053 kcal/mol; folding stability dG unfold [3]: 0.859 ± 0.11 kcal/mol

Q: Which “folding stability dG unfold” value [1] does the source give for “SAGGKIEVEPEVELYRTPDGRLVARPKPVKVKITLKLTITNENGEKKTIEVEADTPEEALAALKALSSAGGS [r8_440_TrROS_Hall]” here?
A: 1.03 ± 0.053 kcal/mol

Q: What about the “folding stability dG unfold” value [2] of the same sequence?
A: 0.726 ± 0.2 kcal/mol

Q: And the “folding stability dG unfold” value [3]?
A: 0.965 ± 0.14 kcal/mol

Q: Which “folding stability dG unfold” value [1] does the source give for “SGMPTVTLNVTIEFERERLSFDPKTGKPRLELVKVTKPVTITGFFTSPEEAAAAAEAVRKALEADPEALASA [r9_77_JUSTAS]” here?
A: 1.7 ± 0.068 kcal/mol

Q: And the “folding stability dG unfold” value [2]?
A: 2.37 ± 0.034 kcal/mol

Q: What about the “folding stability dG unfold” value [3] of the same sequence?
A: 2.07 ± 0.084 kcal/mol

Q: For “SAGGALANLSPEEIAALLESQGYEVTILEVEEKPGERIVKIRVTVKREDGTVESVEEIELTLPAPDKLSAGG [r13_566_JUSTAS]”, which “folding stability dG unfold” value [1] is on record?
A: 3.7 ± 0.11 kcal/mol

Q: What about the “folding stability dG unfold” value [2] of the same sequence?
A: 2.05 ± 0.03 kcal/mol

Q: What about the “folding stability dG unfold” value [3] of the same sequence?
A: 2.83 ± 0.095 kcal/mol

Q: For “SAGGSPKAREERFEKTLPDGTVVPVTLTRLPDGTVRVETTTYTYNSPEPVASTSTTTLPEAEVAAALSAGGS [r16_470_JUSTAS]”, which “folding stability dG unfold” value [1] is on record?
A: 0.631 ± 0.099 kcal/mol

Q: What about the “folding stability dG unfold” value [2] of the same sequence?
A: 0.684 ± 0.11 kcal/mol

Q: And the “folding stability dG unfold” value [3]?
A: 0.686 ± 0.086 kcal/mol

Q: What does the source list for “SAGGSAGGSAGGSGMTLPIPLSELTTEEIRELTKPDEDLVIKTEEDEPVVIPYGEIKPESAGGSAGGSAGGS [r4_382_JUSTAS]”?
A: folding stability dG unfold [1]: 0.694 ± 0.07 kcal/mol; folding stability dG unfold [2]: -1.05 ± 0.3 kcal/mol; folding stability dG unfold [3]: 0.204 ± 0.077 kcal/mol

Q: What does the source list for “SAGGSAGGSAGKAKIEVVEVDKNGKVRLKIKLENGEVKEIENADEITINGKKIKVEKIEPSAGGSAGGSAGG [r11_1017_TrROS_Hall]”?
A: folding stability dG unfold [1]: -0.311 ± 0.25 kcal/mol; folding stability dG unfold [2]: 1.52 ± 0.042 kcal/mol; folding stability dG unfold [3]: 1.11 ± 0.1 kcal/mol

Q: With “SAGGSAGGSAHKITITLPNGNPPEIVVEFETEEEAKEKAEEIIKKLEEEGYPKENLTVTIEKESAGGSAGGS [r12_295_JUSTAS]” as the sequence, how does the “folding stability dG unfold” value [1] read?
A: 1.87 ± 0.076 kcal/mol

Q: What about the “folding stability dG unfold” value [2] of the same sequence?
A: 1.76 ± 0.087 kcal/mol

Q: And the “folding stability dG unfold” value [3]?
A: 1.86 ± 0.12 kcal/mol

Q: What does the source list for “SAGGSAGGWIRVDKVEPNPNDDMATVSVEMEDPGDGKKKKFNMTMPSDNPELIDKLPPGDWIEFSAGGSAGG [r6_979_TrROS]”?
A: folding stability dG unfold [1]: -0.621 ± 0.1 kcal/mol; folding stability dG unfold [2]: 0.215 ± 0.11 kcal/mol; folding stability dG unfold [3]: -0.1 ± 0.096 kcal/mol

Q: What does the source list for “SAGGMMYLIKVDTKEELKELAEAPGAKIVEEKEVNGKLYLLIEFPPGVTKIKIDVETRKIVEIEKLPSAGGS [r8_251_TrROS_Hall]”?
A: folding stability dG unfold [1]: 0.759 ± 0.13 kcal/mol; folding stability dG unfold [2]: 1.58 ± 0.15 kcal/mol; folding stability dG unfold [3]: 1.37 ± 0.26 kcal/mol

Q: With “SAGGSAGGSAGAKVKVFKVRAEVKLTRTADGELVAEVTEVEIEEVEVEVRPPPPPPLPPASAGGSAGGSAGG [r11_381_TrROS_Hall]” as the sequence, how does the “folding stability dG unfold” value [1] read?
A: 1.67 ± 0.24 kcal/mol

Q: And the “folding stability dG unfold” value [2]?
A: 3.11 ± 0.14 kcal/mol

Q: And the “folding stability dG unfold” value [3]?
A: 2.92 ± 0.35 kcal/mol

Q: Which results are given for “MPAISIEEIIKLAKEAGKPAPPTVIVFNYKFGNTTRTLPVPLSEPVSLAEVEAAIKAADPNVTEITLTFVPS [r1_135_JUSTAS]”?
A: folding stability dG unfold [1]: 0.551 ± 0.088 kcal/mol; folding stability dG unfold [2]: 1.36 ± 0.12 kcal/mol; folding stability dG unfold [3]: 1.07 ± 0.16 kcal/mol

Q: Which results are given for “SAGGYKITIPAMFDTPEDALDQVREIARSLGYRITDIKNVEVHKHEDNGMVMVEATIKIEPLPKGQLSAGGS [r16_155_TrROS]”?
A: folding stability dG unfold [1]: 1.77 ± 0.042 kcal/mol; folding stability dG unfold [2]: 2.07 ± 0.074 kcal/mol; folding stability dG unfold [3]: 1.97 ± 0.12 kcal/mol

Q: With “SMKPITLEEALKLAEKLIEEGAKEVVIIRREDGTLLAIMEAEEASPEKVKEFLEANPNVRVLRITGSKEESA [r9_568_TrMRF]” as the sequence, how does the “folding stability dG unfold” value [1] read?
A: 3.17 ± 0.15 kcal/mol

Q: And the “folding stability dG unfold” value [2]?
A: 3.11 ± 0.045 kcal/mol

Q: And the “folding stability dG unfold” value [3]?
A: 3.07 ± 0.12 kcal/mol

Q: With “SAGGSAGGSAGMEVILLEVDSEEEAEKLVKELSEKYGYPVKVEKDPENPKLVTLTIEKPKSAGGSAGGSAGG [r11_797_JUSTAS]” as the sequence, how does the “folding stability dG unfold” value [1] read?
A: 1.41 ± 0.066 kcal/mol

Q: What about the “folding stability dG unfold” value [2] of the same sequence?
A: 1.16 ± 0.039 kcal/mol

Q: What about the “folding stability dG unfold” value [3] of the same sequence?
A: 1.36 ± 0.067 kcal/mol

Q: For “SAGGSAGGSKNGEPPPVPTITMRFKDPDKIRKLNKKAGLPIEHDPGNGYITFPYRQIDKILKASAGGSAGGS [r12_325_TrROS]”, which “folding stability dG unfold” value [1] is on record?
A: 3.98 ± 0.8 kcal/mol

Q: What about the “folding stability dG unfold” value [2] of the same sequence?
A: 5.86 ± 0.32 kcal/mol

Q: What about the “folding stability dG unfold” value [3] of the same sequence?
A: > 6 kcal/mol

Q: For “MSEEERKKAAEERSKPPPVEIKVEVEVVKNEDGEEYLRVRVTVVDPETGEVIEEREFVVRREDLEELLKALS [r1_415_TrROS_Hall]”, which “folding stability dG unfold” value [1] is on record?
A: 3.7 ± 0.16 kcal/mol

Q: And the “folding stability dG unfold” value [2]?
A: 3.57 ± 0.15 kcal/mol

Q: What about the “folding stability dG unfold” value [3] of the same sequence?
A: 3.45 ± 0.27 kcal/mol

Q: Which results are given for “SAGMPITVDSEVDPETGTTTYTITMPRGPGEPVTVTIPVTYSDDSVTIEVTASPGVDAAEIKALIEKQSSAG [r5_478_JUSTAS]”?
A: folding stability dG unfold [1]: 0.645 ± 0.053 kcal/mol; folding stability dG unfold [2]: 0.34 ± 0.22 kcal/mol; folding stability dG unfold [3]: 0.597 ± 0.11 kcal/mol

Q: For “SAGGPRVEPLPLRVTYEDGVPPREVTVPLLAVTALDPETGEPVTFVNPGSLEVLAALLPPSVVSFDFSAGGS [r16_522_TrMRF]”, which “folding stability dG unfold” value [1] is on record?
A: 0.714 ± 0.012 kcal/mol

Q: And the “folding stability dG unfold” value [2]?
A: 0.703 ± 0.066 kcal/mol

Q: And the “folding stability dG unfold” value [3]?
A: 0.755 ± 0.05 kcal/mol

Q: What does the source list for “SAGEERTVRVEIEIVVKTEEELEALKALFPNAEATRNEDGLLTLRLTIEVRVAPPVVVRDPETNELLELSAG [r5_129_TrROS_Hall]”?
A: folding stability dG unfold [1]: 2.56 ± 0.088 kcal/mol; folding stability dG unfold [2]: 2.42 ± 0.049 kcal/mol; folding stability dG unfold [3]: 2.46 ± 0.11 kcal/mol

Q: Which results are given for “SMTITIVVEAPPEEAKEKAEELEKELKEKLDKLREEAKKKGLSEEEIEEELKIKIKVVVVSKEDLEKLKPSA [r9_961_TrROS_Hall]”?
A: folding stability dG unfold [1]: 0.989 ± 0.082 kcal/mol; folding stability dG unfold [2]: -0.317 ± 0.11 kcal/mol; folding stability dG unfold [3]: 0.431 ± 0.13 kcal/mol

Q: For “SAGGSAGGSAGTIKVNGKTVTITKNKKTGKYTITVTLKNGEKKTFVFPSKEDVEEALKALSAGGSAGGSAGG [r11_238_TrROS_Hall]”, which “folding stability dG unfold” value [1] is on record?
A: 3.27 ± 0.11 kcal/mol

Q: And the “folding stability dG unfold” value [2]?
A: 4.14 ± 0.08 kcal/mol

Q: What about the “folding stability dG unfold” value [3] of the same sequence?
A: 3.94 ± 0.13 kcal/mol

Q: With “SAGDSIEIMVMVKTPEEAKKLADEIAQILPGNGLNIEITIMPMEELMKMFMEMTKPDPDGEYRRVRMFSAGG [r19_187_TrROS]” as the sequence, how does the “folding stability dG unfold” value [1] read?
A: 1.07 ± 0.053 kcal/mol

Q: What about the “folding stability dG unfold” value [2] of the same sequence?
A: 1.37 ± 0.13 kcal/mol

Q: What about the “folding stability dG unfold” value [3] of the same sequence?
A: 1.3 ± 0.14 kcal/mol

Q: What does the source list for “SAGGSAGGSAGSIKEALKKLKPGDTVEIEITLKDGSKIKIRVKVIRDKKTKKYKVKIEIESAGGSAGGSAGG [r11_343_TrROS_Hall]”?
A: folding stability dG unfold [1]: 4.16 ± 0.47 kcal/mol; folding stability dG unfold [2]: 3.84 ± 0.077 kcal/mol; folding stability dG unfold [3]: 3.99 ± 0.31 kcal/mol

Q: With “SAGGSAGGSMEVTYDEETGELTVRIEVDGKTLTLKFKSIEDLKAALEKLGIDVDDVKIVEIEPSAGGSAGGS [r12_834_TrROS_Hall]” as the sequence, how does the “folding stability dG unfold” value [1] read?
A: 4.18 ± 0.3 kcal/mol

Q: What about the “folding stability dG unfold” value [2] of the same sequence?
A: 4.75 ± 0.089 kcal/mol

Q: And the “folding stability dG unfold” value [3]?
A: 4.67 ± 0.14 kcal/mol

Q: With “SALPLPSSAKVELEWELVGVDPGSKGAKVYYRRTLKVTFPTGSLTVTYLVEYDPETGTFSWSITSVSPESAG [r14_293_TrMRF]” as the sequence, how does the “folding stability dG unfold” value [1] read?
A: 4.1 ± 0.19 kcal/mol

Q: And the “folding stability dG unfold” value [2]?
A: 5.65 ± 0.095 kcal/mol

Q: And the “folding stability dG unfold” value [3]?
A: 5.38 ± 0.21 kcal/mol

Q: Which results are given for “SAGGSMVKVEVHYDPERDLVLVTVEAPDDPELVDEFVERMKKLGAKRVEVFRFPEDGKVRILVEIGSAGGSA [r2_358_TrMRF]”?
A: folding stability dG unfold [1]: 3.08 ± 0.11 kcal/mol; folding stability dG unfold [2]: 4.68 ± 0.081 kcal/mol; folding stability dG unfold [3]: 4.36 ± 0.1 kcal/mol

Q: Which “folding stability dG unfold” value [1] does the source give for “SAGGSAGGSAGGSSMSISVLEVRELPNGTLEITTVDYNPDNGYTTTTTYTLPPGQPLLISAGGSAGGSAGGS [r4_133_JUSTAS]” here?
A: 1.8 ± 0.053 kcal/mol

Q: What about the “folding stability dG unfold” value [2] of the same sequence?
A: 1.62 ± 0.045 kcal/mol

Q: What about the “folding stability dG unfold” value [3] of the same sequence?
A: 1.74 ± 0.068 kcal/mol

Q: For “SAGGSAGGSADYFMVVIKYYPPNGEKQEHPFSVPFKDEEDLKDEIKEQAPPGREVEIEIFPMSAGGSAGGSA [r18_60_TrROS]”, which “folding stability dG unfold” value [1] is on record?
A: 0.956 ± 0.083 kcal/mol

Q: And the “folding stability dG unfold” value [2]?
A: -0.0385 ± 0.17 kcal/mol

Q: What about the “folding stability dG unfold” value [3] of the same sequence?
A: 0.647 ± 0.12 kcal/mol

Q: What does the source list for “GSARFEASAFLAELPFPPQRVLVVLVRGEDGRVRLFVFFPDGSVVEFDLETGRVVRVIDLPDAPLPPGLLES [r1_409_TrMRF]”?
A: folding stability dG unfold [1]: 2.9 ± 0.071 kcal/mol; folding stability dG unfold [2]: 3.63 ± 0.075 kcal/mol; folding stability dG unfold [3]: 3.39 ± 0.12 kcal/mol
